B1: Ch-5A12.2 (chimeric form of the anti-Nectin-4 monoclonal antibody 5A12.2) (antibody, V domains shown)
VH: QIQLQQSGAELVKPGASVTLSCKTSGFTFNSMYISWLKQKPGQSLEWIAWIYAGTGGTRFNQKFTGKVQLTVDTSSSTAYMQFSSLTTDDSAIYYCAIRSGFVPMDYWGQGTSVTVSS
VL: SIVMTQTPKFLLVSAGDRVTITCKASQSVSNDVAWYQQKPGQSPKLLIYYASNRYTGVPDRFTGSGYGTDFTFTISTVQAEDLAVYFCQQDYSSPWTFGGGTKLEIK
notes: also called 5A12.2 mAb
B2: Ch-15A7.5 (chimeric form of the anti-Nectin-4 monoclonal antibody 15A7.5) (antibody, V domains shown)
VH: EVKLVESGGGLVQPGGSRKLSCAASGFTFSNYGMAWVRQAPGKGPEWVAFISNLAYGINYADTVTGRFTISRENAKNTLYLEMRSLRSEDTAMYYCARGARATGWFAYWGQGTLVTVSA
VL: DIVMTQSQKFMSTSIGDRVSVTCKASQNVDTHVAWYQEKPGQSPKALIYSASYRYSGVPDRFTGSGSGTDFTLTISNVQSEDLADYFCQQYNSYPLTFGGGTKLEIK
notes: also called 15A7.5 mAb

Assays:
[1] = target: T1, N-terminal Flag-tagged human Nectin-4 expressed on transfected MDA-MB231 cells (human, UniProt Q96NY8 32-510); experiment: flow cytometry on MDA-MB231 cells transfected with N-terminal Flag-tagged Nectin-4 (FIG. 1)
T1 construct: whole, on cells; also called PVRL4; not shown: N-terminal Flag tag
T1 sequence (looked up): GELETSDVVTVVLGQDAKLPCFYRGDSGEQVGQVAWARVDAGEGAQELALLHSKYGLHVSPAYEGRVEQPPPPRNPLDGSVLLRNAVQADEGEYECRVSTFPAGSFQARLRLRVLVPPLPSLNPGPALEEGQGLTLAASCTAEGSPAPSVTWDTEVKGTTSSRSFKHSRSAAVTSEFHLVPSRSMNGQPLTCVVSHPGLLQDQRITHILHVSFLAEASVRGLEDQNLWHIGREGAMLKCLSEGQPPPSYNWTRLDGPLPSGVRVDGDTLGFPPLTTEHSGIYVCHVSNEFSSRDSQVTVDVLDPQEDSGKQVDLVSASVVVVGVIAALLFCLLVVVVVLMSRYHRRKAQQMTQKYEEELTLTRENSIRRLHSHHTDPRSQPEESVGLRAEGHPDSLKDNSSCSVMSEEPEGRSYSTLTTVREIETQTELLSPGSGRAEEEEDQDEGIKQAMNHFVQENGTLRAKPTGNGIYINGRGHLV

[2] = target: T2, human Nectin-4 on cells (CHO cells transfected with human Nectin-4 cDNA); normal differentiated human … (human, UniProt Q96NY8 32-510); experiment: flow cytometry on normal differentiated human keratinocytes (NHEK), 8 pM-33 nM (FIG. 15); reference antibody of the comparison
T2 construct: whole, on cells
T2 sequence (looked up): T1 sequence (looked up)

[3] = target: T3, Nectin-4 IgV-like domain Fc fusion recombinant protein (human, UniProt Q96NY8 32-147, limits assumed); experiment: ELISA, plate coated with Nec4-V, peroxidase-conjugated Ch-15A7.5 (FIG. 2)
T3 construct: domain: IgV-like domain; also called Nec4-V; Nectin-4-V-Fc; not shown: Fc part
T3 sequence (looked up): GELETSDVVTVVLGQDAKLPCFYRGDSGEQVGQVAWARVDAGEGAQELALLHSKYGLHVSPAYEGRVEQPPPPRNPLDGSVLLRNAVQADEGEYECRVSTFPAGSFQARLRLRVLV

[4] = target: T4, Nectin-1 extracellular domain Fc fusion recombinant protein (UniProt Q15223 31-355, limits assumed); experiment: ELISA, plate coated with Nec1-VCC, peroxidase-conjugated Ch-15A7.5 (FIG. 2)
T4 construct: extracellular domain; also called Nec1-VCC; Nectin-1-VCC-Fc; not shown: Fc part
T4 sequence (looked up): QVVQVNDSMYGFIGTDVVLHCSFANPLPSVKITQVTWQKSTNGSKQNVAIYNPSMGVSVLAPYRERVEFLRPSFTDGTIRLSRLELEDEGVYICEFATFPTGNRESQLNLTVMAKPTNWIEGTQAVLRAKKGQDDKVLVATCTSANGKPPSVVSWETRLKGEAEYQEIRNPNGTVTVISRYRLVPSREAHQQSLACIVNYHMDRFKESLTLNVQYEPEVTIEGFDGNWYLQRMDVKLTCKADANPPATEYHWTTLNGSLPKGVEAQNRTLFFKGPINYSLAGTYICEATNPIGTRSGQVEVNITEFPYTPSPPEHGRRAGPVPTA

[5] = target: T5, Nectin-4 extracellular domain Fc fusion recombinant protein (human, UniProt Q96NY8 32-349); experiment: ELISA, plate coated with Nec4-VCC, peroxidase-conjugated Ch-15A7.5 (FIG. 2)
T5 construct: extracellular domain; also called Nec4-VCC; Nectin-4-VCC-Fc; not shown: Fc part
T5 sequence (looked up): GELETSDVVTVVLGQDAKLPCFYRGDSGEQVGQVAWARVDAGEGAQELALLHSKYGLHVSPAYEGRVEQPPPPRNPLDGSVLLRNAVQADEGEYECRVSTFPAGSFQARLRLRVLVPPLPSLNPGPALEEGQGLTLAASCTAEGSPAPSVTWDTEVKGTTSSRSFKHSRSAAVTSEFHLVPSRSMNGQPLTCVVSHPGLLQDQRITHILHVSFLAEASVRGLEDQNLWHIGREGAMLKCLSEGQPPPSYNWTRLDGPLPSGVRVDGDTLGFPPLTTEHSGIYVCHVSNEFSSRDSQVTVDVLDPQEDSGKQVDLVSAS

[6] = target: T2, human Nectin-4 on cells (CHO cells …); experiment: flow cytometry on normal differentiated human keratinocytes (NHEK), 8 pM-33 nM (FIG. 15)

| Binder | binding result [1] | binding result [2] | binding result [3] | binding result [4] | binding result [5] | binding result [6] |
| --- | --- | --- | --- | --- | --- | --- |
| B1 | binds | binds | – | – | – | – |
| B2 | binds | – | binds | no binding (tested: 10 nM) | binds | binds |
